Data: patent publication US20150087055A1, “ANALOG AND MIXED-SIGNAL COMPUTATION AND CIRCUITS IN LIVING CELLS” (MASSACHUSETTS INSTITUTE OF TECHNOLOGY, priority 2012, published 2015)

Tested on: Plux promoter
Assay: LuxR/Plux circuit characterization by flow cytometry (AHL transfer functions)
Assay type: cell-based, E. coli
Conditions: no AHL, IPTG=10 mM, GFP, MG1655 Pro cells (FIG. 19C)
Experimental: Overnight cultures of E. coli strains were grown from glycerol freezer stocks at 37° C. 300 rpm in 3 mL of Luria-Bertani (LB)-Miller medium (Fisher #BP1426-2), with appropriate antibiotics: carbenicillin (50 μg/ml), kanamycin (30 μg/ml), chloramphenicol (25 μg/ml). The inducers used were arabinose, isopropyl-β-D-1-thiogalactopyranoside, and AHL 3OC6HSL (Sigma-Aldrich #K3007-10MG). Where appropriate, COPYCONTROL^24 from Epicentre (Madison, Wis.) was added to overnight cultures at 1× active concentration. Overnight cultures were diluted 1:100 into 3 mL fresh LB and antibiotics and were incubated at 37° C. 300 rpm for 20 minutes. […]
Cells were then diluted 4-fold into a new 96-well plate containing fresh 1×PBS and immediately assayed using a BD LSRFORTESSA-HTS. At least 50,000 events were recorded for all data, which was then gated by forward scatter and side scatter using CYFLOGIC v.1.2.1 software (CyFlo, Turku, Finland). The geometric means of the gated fluorescence distributions were calculated by Matlab. Fluorescence values are based on geometric means of flow cytometry populations from three experiments and the error bars represent standard errors of the mean.
For each experiment, fluorescence readings were taken on a BioTek Synergy H1 Microplate reader using BioTek Gen5 software to determine the minimum and maximum expression level for cultures in each 96-well plate. […]

B1: LuxR: quorum-sensing transcriptional activator induced by AHL, activates promoter Plux (protein, UniProt P12746 1-250, looked up)
Transcriptional activator …: MKNINADDTYRIINKIKACRSNNDINQCLSDMTKMVHCEYYLLAIIYPHSMVKSDISILDNYPKKWRQYYDDANLIKYDPIVDYSNSNHSPINWNIFENNAVNKKSPNVIKEAKTSGLITGFSFPIHTANNGFGMLSFAHSEKDNYIDSLFLHACMNIPLIVPSLVDNYRKINIANNKSNNDLTKREKECLAWACEGKSSWDISKILGCSERTVTFHLTNAQMKLNTTNRCQSISKAILTGAIDCPYFKN
  repression of the Plux promoter in the absence of AHL: no repression
